Kd data for one molecule are collected here from patent publication US20210309751A1.

The target of experiment [1] is RevCAR harboring the La 5B9 epitope tag, on RevCAR expressing cells (human). As to the kind of experiment: binding assay on RevCAR expressing target cells.
In experiment [2] the target is CD123 (interleukin-3 receptor a chain) on CD123-expressing OCI-AML3 blasts (human) (UniProt P26951). As to the kind of experiment: binding assay on CD123-expressing OCI-AML3 cells.
Sequence of UniProt P26951 (P26951 19-378): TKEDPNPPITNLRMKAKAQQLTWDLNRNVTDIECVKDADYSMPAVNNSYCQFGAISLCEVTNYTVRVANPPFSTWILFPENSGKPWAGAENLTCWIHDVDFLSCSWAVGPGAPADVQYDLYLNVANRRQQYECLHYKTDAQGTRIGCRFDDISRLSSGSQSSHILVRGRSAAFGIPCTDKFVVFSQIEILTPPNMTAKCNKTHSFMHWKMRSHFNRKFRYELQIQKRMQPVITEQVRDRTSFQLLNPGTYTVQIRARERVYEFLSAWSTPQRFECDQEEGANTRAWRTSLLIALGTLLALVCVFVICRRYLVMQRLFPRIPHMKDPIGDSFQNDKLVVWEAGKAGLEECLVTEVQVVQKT

B1: AdMo CD123-La5B9 (CD123-specific adapter module with an scFv recognizing the La 5B9 epitope) (bispecific antibody, part only; not given: linkers, domain order, tags, V domains shown, not shown: another chain or arm of the molecule; small tags and cut ends)
VH 1: QVQLVQSGAEVKKPGASVKVSCKASGYTFTHYYIYWVRQAPGQGLEWMGGVNPSNGGTHFNEKFKSRVTMTRDTSISTAYMELSRLRSDDTAVYYCARSEYDYGLGFAYWGQGTLVTVSS
VL 1: DIVMTQSPDSLAVSLGERATINCKSSQSLLNSRTPKNYLAWYQQKPGQPPKLLIYWASTRKSGVPDRFSGSGSGTDFTLTISSLQAEDVAVYYCKQSYNLLTFGGGTKVEIK
VH 2: EVQLQQSGPELVKPGASVKMSCKASGYTFTDYYMKWVKQSHGKSLEWIGDIIPSNGATFYNQKFKGKATLTVDRSSSTAYMHLNSLTSEDSAVYYCTRSHLLRASWFAYWGQGTLVTVS
VL 2: DFVMTQSPSSLTVTAGEKVTMSCKSSQSLLNSGNQKNYLTWYLQKPGQPPKLLIYWASTRESGVPDRFTGSGSGTDFTLTISSVQAEDLAVYYCQNDYSYPYTFGGGTKLEIK
On to B1, for which the Kd in experiment [1] was found to be 0.012 nM; in experiment [2] it was 0.015 nM.
